Experimental data reported in US20230303674A1.
pKd: −log10 of the molar value.

Columns and labels:
rat α-CGRP (1-37) (rat) = test: Biacore 37°C, Fab over biotinylated CGRP on SA chip
[1] = target: human α-CGRP 1-37 (WT) (human); test: as above
[2] = target: human α-CGRP 1-37 (WT) (human); test: Biacore 25°C, Fab over biotinylated CGRP on SA chip
[3] = target: human α-CGRP K35A (19-37) (human); test: Biacore SPR, 25 °C, Fab over peptide on chip; KD ratio to parent 19-37
[4] = target: human α-CGRP fragment 25-37 (human); test: Biacore SPR, 25 °C, Fab flowed over biotinylated peptide on SA chip; mean ± SD of two measurements
[5] = target: human α-CGRP fragment 19-37 (human); test: as above
[6] = target: human α-CGRP F27A (25-37) (human); test: Biacore SPR, 25 °C, Fab over peptide on chip; KD ratio to parent 25-37
[7] = target: human α-CGRP V32A (25-37) (human); test: as above
[8] = target: human α-CGRP N31A (25-37) (human); test: as above
[9] = target: human α-CGRP F37A (25-37) (human); test: as above
[10] = target: human α-CGRP S34A (25-37) (human); test: as above
[11] = target: human α-CGRP T30A (25-37) (human); test: as above
[12] = target: human α-CGRP P29A (25-37) (human); test: as above
[13] = target: human α-CGRP G33A (25-37) (human); test: as above
[14] = target: human α-CGRP V28A (25-37) (human); test: as above

Sequence of human α-CGRP 1-37 (WT) (human) (peptide, as listed by the source): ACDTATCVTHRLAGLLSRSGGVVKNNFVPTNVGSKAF
Sequence of rat α-CGRP (1-37) (rat) (peptide, as listed by the source): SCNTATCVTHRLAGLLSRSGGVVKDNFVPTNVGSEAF

murine anti-CGRP monoclonal antibody 7E9, Fab fragment
pKd (rat α-CGRP (1-37) (rat)): 7.33 | pKd [1]: 9.05 | pKd [2]: 9.00 | KD(mutant/parent) [3]: 4 | pKd [4]: 9.85 | pKd [5]: 8.96 | KD(mutant/parent) [6]: 1 | KD(mutant/parent) [7]: 41 | KD(mutant/parent) [8]: 9 | KD(mutant/parent) [9]: 3600 | KD(mutant/parent) [10]: 69 | KD(mutant/parent) [11]: 7 | KD(mutant/parent) [12]: 26 | KD(mutant/parent) [13]: 1260 | KD(mutant/parent) [14]: 1
